The results in this text go back to publication PMC10123104, “YbiB: a novel interactor of the GTPase ObgE”.

One data set has as its target T1, YbiB Arg123Glu (Escherichia coli BW25113, UniProt P30177 1-320, R123E).
T1 sequence: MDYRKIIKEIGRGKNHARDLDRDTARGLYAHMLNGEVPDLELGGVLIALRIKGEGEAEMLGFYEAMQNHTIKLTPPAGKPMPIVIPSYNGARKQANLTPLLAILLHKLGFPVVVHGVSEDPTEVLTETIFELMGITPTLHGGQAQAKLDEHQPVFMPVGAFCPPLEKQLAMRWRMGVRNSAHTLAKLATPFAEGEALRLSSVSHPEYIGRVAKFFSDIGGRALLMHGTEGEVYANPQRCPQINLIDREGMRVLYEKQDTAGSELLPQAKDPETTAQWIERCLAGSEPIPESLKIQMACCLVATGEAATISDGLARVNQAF
Briefly: EMSA; EMSA: 20 mM HEPES pH 7.5, 150 mM NaCl, 5 mM MgCl2, 2 mM DTT, 5% glycerol, 30 min at 37 C; 6% PAGE in 1x TBE at room temperature. The settings on record: protein: recombinant; tags: N-terminal His6, thrombin site (pET28a); chain copies: 2; label: 5'-32P; single strand. (A gel shift assay detects complexes by their altered migration in electrophoresis.)

The target of a further data set is T2, YbiB Arg92Glu (Escherichia coli BW25113, UniProt P30177 1-320, R92E).
T2 sequence: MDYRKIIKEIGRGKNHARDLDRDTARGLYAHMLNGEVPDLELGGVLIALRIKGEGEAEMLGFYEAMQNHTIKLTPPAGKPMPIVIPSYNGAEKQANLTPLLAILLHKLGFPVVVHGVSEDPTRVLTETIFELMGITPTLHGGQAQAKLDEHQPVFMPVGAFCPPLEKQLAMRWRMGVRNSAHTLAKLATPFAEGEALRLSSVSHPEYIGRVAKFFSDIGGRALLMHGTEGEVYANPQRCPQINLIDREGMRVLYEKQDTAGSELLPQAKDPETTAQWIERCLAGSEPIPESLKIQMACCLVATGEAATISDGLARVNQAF
Described as above. The conditions noted are these: protein: recombinant; tags: N-terminal His6, thrombin site (pET28a); chain copies: 2; label: 5'-32P; single strand.

B1: EMSA_probe (58-nt ssDNA) (ssDNA)
DNA: GCTTTTGATGTACCAATGCATCACCATCACCATCAGGAAATGGGTAAGATGCTTGTAG
Regarding B1, the binding signal in the data set with YbiB Arg123Glu and with YbiB Arg92Glu was > 10 fold higher apparent KD than WT in each case.
